Target: T1, 人PRL蛋白 (native prolactin in pituitary tumour tissue sections) (human, UniProt P01236 29-227)
T1 construct: Endogenous protein detected by immunohistochemistry in paraffin sections of pituitary tumours; also called 催乳素
T1 sequence (looked up): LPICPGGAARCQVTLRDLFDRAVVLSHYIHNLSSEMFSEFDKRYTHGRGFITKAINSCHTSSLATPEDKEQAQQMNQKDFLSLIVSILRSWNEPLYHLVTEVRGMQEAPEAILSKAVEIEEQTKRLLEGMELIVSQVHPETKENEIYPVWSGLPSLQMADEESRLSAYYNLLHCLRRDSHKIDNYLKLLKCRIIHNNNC
Test: immunohistochemistry on 9 pituitary tumour sections

binding result: binds
B1: 抗PRL蛋白单克隆抗体(2C10D5H11) (antibody, V domains shown)
VH: QIQLVQSGPELKKPGETVKISCKASGYSFTNSAMSWVHQAPGKGLKWMGFINTKTGEPTYVEEFRGRFVFSLETSASTAYLQINNLKNEDTATYFCAKETDNSDDYWGQGTTLTVSS
VL: QIVLTQSPAIMSASPGEMVTLTCSASSSVSSSYLYWYQQKPGSSPKLWIYSTSNLASGVPARFSGSGSGTSYSLTISSMEAEDAASYFCHQWSSYPPTFGGGTKLEIK
notes: also called anti-PRL monoclonal antibody; antibody of hybridoma CGMCC NO.22311

— patent publication CN113956356A (FUZHOU MAIXIN BIOTECHNOLOGY DEV CO LTD, dated 2022)
